Molecular target: T1, His-tagged COOH-terminal fragment of Digitor containing the six TQT motifs (amino acids 256 to 388) (Drosophila, UniProt Q9VZU1 256-388)
T1 construct: Digitor/dASCIZ (CG14962), Drosophila, residues 256-388, holds the six TQT motifs; full length is aa 1-388; Purification is not described; 10 ug amounts are stated; also called Digitor-His; His-Digitor; source: expressed in BL21 cells (pET28a)
T1 sequence (looked up): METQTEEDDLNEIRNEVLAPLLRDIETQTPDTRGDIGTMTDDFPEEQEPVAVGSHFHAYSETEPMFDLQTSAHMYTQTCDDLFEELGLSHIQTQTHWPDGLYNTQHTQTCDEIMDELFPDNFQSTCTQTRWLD
Assay: pull-down; MBP-Cut up or MBP alone bound to amylose resin, incubated with His-tagged Digitor in 1X PBS pH 7.4, 4 hr, 4°C; 5 washes; immunoblot with anti-His antibody
Settings: both partners purified

- binding result: binds
B1: full length Cut up MBP fusion protein (amino acids 1-89) (natural protein, Drosophila, UniProt Q24117 1-89, looked up)
chain: MSDRKAVIKNADMSEEMQQDAVDCATQALEKYNIEKDIAAYIKKEFDKKYNPTWHCIVGRNFGSYVTHETRHFIYFYLGQVAILLFKSG
notes: Cut up, the Dynein light chain (DYNLL1 homolog) of Drosophila, full-length cDNA encoding amino acids 1-89; Purification is not described; 10 ug amounts are stated; also called MBP-Cut-up; MBP-Cut up; source: expressed in BL21 cells (pMAL-C2X)

— article PMC5115829, “Digitor/dASCIZ Has Multiple Roles in Drosophila Development” (PLoS ONE, 2016)
